T1: human CD25 (ELISA antigen) (human, UniProt P01589 22-213, limits assumed)
T1 construct: The ELISA protocol is described only for cyno CD25; the human antigen's construct is not described
T1 sequence (looked up): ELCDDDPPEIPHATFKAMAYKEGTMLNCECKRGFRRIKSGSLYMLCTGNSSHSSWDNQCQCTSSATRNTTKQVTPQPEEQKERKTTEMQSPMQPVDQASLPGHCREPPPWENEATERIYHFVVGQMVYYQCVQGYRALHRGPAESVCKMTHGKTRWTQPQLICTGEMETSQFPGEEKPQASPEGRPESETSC

T2: CD25 on CD25-expressing human cells (SUDHL-1, SR786, regulatory T cells) (human, UniProt P01589 22-272)
T2 sequence (looked up): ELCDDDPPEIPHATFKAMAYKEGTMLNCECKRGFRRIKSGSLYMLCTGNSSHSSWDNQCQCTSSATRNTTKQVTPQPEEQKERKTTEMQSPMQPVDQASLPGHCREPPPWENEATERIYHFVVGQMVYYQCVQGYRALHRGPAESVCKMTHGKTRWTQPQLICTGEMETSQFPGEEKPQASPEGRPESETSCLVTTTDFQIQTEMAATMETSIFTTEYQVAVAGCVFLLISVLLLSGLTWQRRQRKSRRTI

T3: recombinant cynomolgus monkey (cyno) CD25 (cynomolgus monkey, UniProt H6WS54 22-213)
T3 sequence: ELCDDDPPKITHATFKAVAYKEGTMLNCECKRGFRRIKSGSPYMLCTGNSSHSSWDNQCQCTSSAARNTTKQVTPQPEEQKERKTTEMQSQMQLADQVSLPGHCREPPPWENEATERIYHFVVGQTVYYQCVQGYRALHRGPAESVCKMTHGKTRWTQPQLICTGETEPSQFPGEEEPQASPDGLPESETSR

B1: 7G7B6 (antibody, V domains shown)
VH: EVQLVESGGDLVQPRGSLKLSCAASGFTFSSYGMSWVRQTPDKRLELVATINGYGDTTYYPDSVKGRFTISRDNAKNTLYLQMSSLKSEDTAMYFCARDRDYGNSYYYALDYWGQGTSVTVSS
VL: QIVLSQSPAILSASPGERVTMTCRASSSVSFMHWLQQKPGSSPKPWIYATSNLASGVSARFSGSGSGTSYSLTITRVEAEDAATYYCQQWSSNPPAFGGGTKLEIK
B2: D11 (original or parental) (antibody, V domains shown)
VH: QIQLQQPGAELVRPGVSLKISCKGSGYTFTDYAMHWVRQSHAKSLEWIGVISTYSGDAIYNQKFKGKATMTVDKSSSTAYLELARLTSDDSAIYYCARGVTFDYWGQGTTVTVSS
VL: DIQMTQTTSSLSASLGDRVTITCRASQDISNYLEWYQQKQGKSPQLLVYNAKTLAEGVPSRFSGSGSGTQFSLKINSLQPEDFGSYYCQHHYDTPYTFGGGTKLEIK
notes: also called parental D11; original D11
B3: hD11-H3-L2 (hD11-H3h-L2) (antibody, V domains shown)
VH: QVQLVQSGAEVKKPGASLKISCKGSGYTFTDYAMHWVRQAPGQGLEWIGVISTYSGDAIYAQKFQGRATMTVDTSTSTAYLELSSLRSEDTAVYYCARGVTFDYWGQGTTVTVSS
VL: DIQMTQSPSSLSASVGDRVTITCRASQDISNYLEWYQQKPGKAPKLLVYNAKTLAEGVPSRFSGSGSGTDFTLTISSLQPEDFGTYYCQHHYDTPYTFGQGTKLEIK
B4: hD11-H2-L1 (antibody, V domains shown)
VH: QVQLVQSGAEVKKPGASVKVSCKGSGYTFTDYAMHWVRQAPGQGLEWMGVISTYSGDAIYAQKFQGRVTMTVDTSTSTAYMELSSLRSEDTAVYYCARGVTFDYWGQGTTVTVSS
VL: DIQMTQSPSSLSASVGDRVTITCRASQDISNYLEWYQQKPGKAPKLLIYNAKTLAEGVPSRFSGSGSGTDFTLTISSLQPEDFATYYCQHHYDTPYTFGQGTKLEIK
B5: hD11-H1-L1 (antibody, V domains shown)
VH: QVQLVQSGAEVKKPGASVKVSCKASGYTFTDYAMHWVRQAPGQGLEWMGVISTYSGDAIYAQKFQGRVTMTRDTSTSTVYMELSSLRSEDTAVYYCARGVTFDYWGQGTTVTVSS
VL: DIQMTQSPSSLSASVGDRVTITCRASQDISNYLEWYQQKPGKAPKLLIYNAKTLAEGVPSRFSGSGSGTDFTLTISSLQPEDFATYYCQHHYDTPYTFGQGTKLEIK
B6: hD11-H3b-L1 (antibody, V domains shown)
VH: QVQLVQSGAEVKKPGASLKISCKGSGYTFTDYAMHWVRQAPGQGLEWIGVISTYSGDAIYAQKFQGRATMTVDKSTSTAYLELSSLRSEDTAVYYCARGVTFDYWGQGTTVTVSS
VL: DIQMTQSPSSLSASVGDRVTITCRASQDISNYLEWYQQKPGKAPKLLIYNAKTLAEGVPSRFSGSGSGTDFTLTISSLQPEDFATYYCQHHYDTPYTFGQGTKLEIK
B7: hD11-H3-L1 (hD11-H3h-L1) (antibody, V domains shown)
VH: QVQLVQSGAEVKKPGASLKISCKGSGYTFTDYAMHWVRQAPGQGLEWIGVISTYSGDAIYAQKFQGRATMTVDTSTSTAYLELSSLRSEDTAVYYCARGVTFDYWGQGTTVTVSS
VL: DIQMTQSPSSLSASVGDRVTITCRASQDISNYLEWYQQKPGKAPKLLIYNAKTLAEGVPSRFSGSGSGTDFTLTISSLQPEDFATYYCQHHYDTPYTFGQGTKLEIK
B8: hD11-H2b-L1 (antibody, V domains shown)
VH: QVQLVQSGAEVKKPGASVKVSCKGSGYTFTDYAMHWVRQAPGQGLEWMGVISTYSGDAIYAQKFQGRVTMTVDKSTSTAYMELSSLRSEDTAVYYCARGVTFDYWGQGTTVTVSS
VL: DIQMTQSPSSLSASVGDRVTITCRASQDISNYLEWYQQKPGKAPKLLIYNAKTLAEGVPSRFSGSGSGTDFTLTISSLQPEDFATYYCQHHYDTPYTFGQGTKLEIK
B9: hD11-H2-L2 (antibody, V domains shown)
VH: QVQLVQSGAEVKKPGASVKVSCKGSGYTFTDYAMHWVRQAPGQGLEWMGVISTYSGDAIYAQKFQGRVTMTVDTSTSTAYMELSSLRSEDTAVYYCARGVTFDYWGQGTTVTVSS
VL: DIQMTQSPSSLSASVGDRVTITCRASQDISNYLEWYQQKPGKAPKLLVYNAKTLAEGVPSRFSGSGSGTDFTLTISSLQPEDFGTYYCQHHYDTPYTFGQGTKLEIK
B10: hD11-H2b-L2 (antibody, V domains shown)
VH: QVQLVQSGAEVKKPGASVKVSCKGSGYTFTDYAMHWVRQAPGQGLEWMGVISTYSGDAIYAQKFQGRVTMTVDKSTSTAYMELSSLRSEDTAVYYCARGVTFDYWGQGTTVTVSS
VL: DIQMTQSPSSLSASVGDRVTITCRASQDISNYLEWYQQKPGKAPKLLVYNAKTLAEGVPSRFSGSGSGTDFTLTISSLQPEDFGTYYCQHHYDTPYTFGQGTKLEIK
B11: hD11-H3b-L2 (antibody, V domains shown)
VH: QVQLVQSGAEVKKPGASLKISCKGSGYTFTDYAMHWVRQAPGQGLEWIGVISTYSGDAIYAQKFQGRATMTVDKSTSTAYLELSSLRSEDTAVYYCARGVTFDYWGQGTTVTVSS
VL: DIQMTQSPSSLSASVGDRVTITCRASQDISNYLEWYQQKPGKAPKLLVYNAKTLAEGVPSRFSGSGSGTDFTLTISSLQPEDFGTYYCQHHYDTPYTFGQGTKLEIK
B12: hD11-H1-L2 (antibody, V domains shown)
VH: QVQLVQSGAEVKKPGASVKVSCKASGYTFTDYAMHWVRQAPGQGLEWMGVISTYSGDAIYAQKFQGRVTMTRDTSTSTVYMELSSLRSEDTAVYYCARGVTFDYWGQGTTVTVSS
VL: DIQMTQSPSSLSASVGDRVTITCRASQDISNYLEWYQQKPGKAPKLLVYNAKTLAEGVPSRFSGSGSGTDFTLTISSLQPEDFGTYYCQHHYDTPYTFGQGTKLEIK
notes: Humanized variant of D11 (parental clone carries human IgG1)

Assays:
[1] = target: T1, human CD25 (ELISA antigen); test: ELISA on human CD25, OD450, curve fit
[2] = target: T2, CD25 on CD25-expressing human cells …; test: cell-based or functional assay
[3] = target: T3, recombinant cynomolgus monkey (cyno) …; test: ELISA on coated cyno CD25, OD450, curve fit
Method: (§1) To test for binding to recombinant cynomolgus monkey (cyno) CD25, microtiter plates were coated with 80 ul of 1 ug/ml Cyno CD25 in 50 mM sodium carbonate pH 9.6) at 4° C. overnight. The next day, remove the protein from the wells and block with 200 ul PBS/0.1% BSA/0.05% tween20. The plate was incubated for 1 hour at room temperature. The antibodies starting at 25 nM and 3 fold serially were diluted in PBT buffer and added to the plate for incubation at RT for 1 hour. The plate was then washed and then 1:2500 dilution of HRP conjugate anti-Fab antibody was added. The plate was washed 5-10 times with PBS/tween20 to remove non-specific binders. TMB perxidase substrate and peroxidase solution were added and incubated for the time needed to develop with 80 uL of ELISA stop solution added at the end. OD measurements were then taken at […] using a plate reader (SpectraMax iD3 Plate Reader, Molecular Devices).
(§2) The ratio is indicative of a preference in binding to either cyno or human CD25.

[4] = target: T3, recombinant cynomolgus monkey (cyno) …; test: ratio of the ELISA IC50 on cyno CD25 to that on human CD25
Method: as §1, §2

Binder	Top [1]	Treg ADCC EC50 [2]	Top [3]	Cyno/Human [4]
B1	3.12	0.0194 mg/L	2.96	1.8
B2	3.12	0.0135 mg/L	3.01	1.3
B3	–	0.0048 mg/L	–	–
B4	–	0.0178 mg/L	–	–
B5	–	0.0206 mg/L	–	–
B6	–	0.0317 mg/L	–	–
B7	–	0.0683 mg/L	–	–
B8	–	0.0089 mg/L	–	–
B9	–	0.0133 mg/L	–	–
B10	–	0.0145 mg/L	–	–
B11	–	0.0077 mg/L	–	–
B12	3.1	0.0467 mg/L	3.04	42.4
